Data taken from publication doi:10.1101/2021.10.15.464611.

Target: anti-PfTRAP monoclonal antibody AKBR-7 (mouse)
Experiment: BLI

B1: Plasmodium falciparum TRAP ectodomain (PfTRAP) (domain or fragment)
chain: RDVQNNIVDEIKYSEEVCNDQVDLYLLMDCSGSIRRHNWVNHAVPLAMKLIQQLNLNDNAIHLYVNVFSNNAKEIIRLHSDASKNKEKALIIIRSLLSTNLPYGRTNLTDALLQVRKHLNDRINRENANQLVVILTDGIPDSIQDSLKESRKLSDRGVKIAVFGIGQGINVAFNRFLVGCHPSDGKCNLYADSAWENVKNVIGPFMKAVCVEVEKTASCGVWDEWSPCSVTCGKGTRSRKREILHEGCTSEIQEQCEEERCPPKWEPLDVPDEPEDDQPRPRGDNSSVQKPEENIIDNNPQEPSPNPEEGKDENPNGFDLDENPENPPNPDIPEQKPNIPEDSEKEVPSDVPKNPEDDREENFDIPKKPENKHDNQNNLPNDKSDRNIPYSPLPPKVLDNERKQSDPQSQDNNGNRHVPNSEDRETRPHGRNNENRSYNRKYNDTPKHPEREEHEKPDNNKKKGESDNKYK
For B1, which Kd is on record?
Its Kd is 0.15 nM.
